Results taken from article PMC2932728, “The Canine Papillomavirus and Gamma HPV E7 Proteins Use an Alternative Domain to Bind and Destabilize the Retinoblastoma Protein” (PLoS Pathogens, 2010).

T1: GST HPV16 E7CR1CR2 (human papillomavirus type 16 (HPV16), UniProt P03129 1-38)
T1 construct: E7 protein of human papillomavirus type 16, CR1 and CR2 domains; also called the combined CR domains; source: E. coli BL21pLysS, purified (glutathione-Sepharose)
T1 chain: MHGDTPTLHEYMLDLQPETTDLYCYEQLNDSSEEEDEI


What was measured:
[1] = target: pRb; test: GST pull-down, Western blot with anti-pRb antibody, densitometry; settings: binding normalized to GSTE7 protein; wild type CPV-2 E7 GST fusion set to 100%; parent: 100
[2] = target: T1, GST HPV16 E7CR1CR2; test: pull-down; 5 µg GST fusion protein with 50 µg Jurkat cell nuclear extract, 1 h at 4°C in 20 mM Hepes/150 mM KCl/4 mM MgCl2/1 mM EDTA/0.02% Nonidet P-40/10% glycerol; glutathione-Sepharose beads; Western blot for pRb and GST, densitometry normalised to GSTE7, wild type CPV-2 E7 set to 100%; settings: one partner purified

Molecule | percent of parent [1] [%] | fold pRb bound against the HPV16 E7 carboxyl-terminus domain [2] [fold]
GST CPV-2 E7 wild type fusion protein S26C | 147 | 
GST CPV-2 E7 wild type fusion protein S26G | 99 | 
human retinoblastoma tumor suppressor protein pRb (natural protein, human (endogenous in Jurkat), UniProt P06400 1-928, looked up, retinoblastoma protein pRb, human, endogenous in Jurkat cell nuclear extract; also called human pRb; source: endogenous, Jurkat cell nuclear extract) MPPKTPRKTAATAAAAAAEPPAPPPPPPPEEDPEQDSGPEDLPLVRLEFEETEEPDFTALCQKLKIPDHVRERAWLTWEKVSSVDGVLGGYIQKKKELWGICIFIAAVDLDEMSFTFTELQKNIEISVHKFFNLLKEIDTSTKVDNAMSRLLKKYDVLFALFSKLERTCELIYLTQPSSSISTEINSALVLKVSWITFLLAKGEVLQMEDDLVISFQLMLCVLDYFIKLSPPMLLKEPYKTAVIPINGSPRTPRRGQNRSARIAKQLENDTRIIEVLCKEHECNIDEVKNVYFKNFIPFMNSLGLVTSNGLPEVENLSKRYEEIYLKNKDLDARLFLDHDKTLQTDSIDSFETQRTPRKSNLDEEVNVIPPHTPVRTVMNTIQQLMMILNSASDQPSENLISYFNNCTVNPKESILKRVKDIGYIFKEKFAKAVGQGCVEIGSQRYKLGVRLYYRVMESMLKSEEERLSIQNFSKLLNDNIFHMSLLACALEVVMATYSRSTSQNLDSGTDLSFPWILNVLNLKAFDFYKVIESFIKAEGNLTREMIKHLERCEHRIMESLAWLSDSPLFDLIKQSKDREGPTDHLESACPLNLPLQNNHTAADMYLSPVRSPKKKGSTTRVNSTANAETQATSAFQTQKPLKSTSLSLFYKKVYRLAYLRLNTLCERLLSEHPELEHIIWTLFQHTLQNEYELMRDRHLDQIMMCSMYGICKVKNIDLKFKIIVTAYKDLPHAVQETFKRVLIKEEEYDSIIVFYNSVFMQRLKTNILQYASTRPPTLSPIPHIPRSPYKFPSSPLRIPGGNIYISPLKSPYKISEGLPTPTKMTPRSRILVSIGESFGTSEKFQKINQMVCNSDRVLKRSAEGSNPPKPLKKLRFDIEGSDEADGSKHLPGESKFQQKLAEMTSTRTRMQKQKMNDSMDTSNKEEK |  | 6
